Data as given in patent US20260035426.

Chain of recombinant human MMP9 (chain, as listed by the source): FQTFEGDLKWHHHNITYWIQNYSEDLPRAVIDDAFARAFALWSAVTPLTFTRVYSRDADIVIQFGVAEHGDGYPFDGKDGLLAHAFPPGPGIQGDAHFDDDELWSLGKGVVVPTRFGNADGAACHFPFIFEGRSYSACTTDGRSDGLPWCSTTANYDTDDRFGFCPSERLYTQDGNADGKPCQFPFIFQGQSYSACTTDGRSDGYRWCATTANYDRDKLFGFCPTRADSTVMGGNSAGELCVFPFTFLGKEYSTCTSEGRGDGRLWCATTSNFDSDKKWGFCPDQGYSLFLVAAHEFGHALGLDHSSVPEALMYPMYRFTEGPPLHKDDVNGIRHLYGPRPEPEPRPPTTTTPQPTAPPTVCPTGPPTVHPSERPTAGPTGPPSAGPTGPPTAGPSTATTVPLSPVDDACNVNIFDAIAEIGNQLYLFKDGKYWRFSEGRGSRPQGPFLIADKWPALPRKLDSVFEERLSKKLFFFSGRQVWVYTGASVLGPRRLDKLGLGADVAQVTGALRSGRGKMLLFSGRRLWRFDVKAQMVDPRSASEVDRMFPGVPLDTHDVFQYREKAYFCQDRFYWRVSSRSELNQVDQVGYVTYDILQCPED
Chain of SB1902-C4 (chain, as listed by the source, chain 1 of 2): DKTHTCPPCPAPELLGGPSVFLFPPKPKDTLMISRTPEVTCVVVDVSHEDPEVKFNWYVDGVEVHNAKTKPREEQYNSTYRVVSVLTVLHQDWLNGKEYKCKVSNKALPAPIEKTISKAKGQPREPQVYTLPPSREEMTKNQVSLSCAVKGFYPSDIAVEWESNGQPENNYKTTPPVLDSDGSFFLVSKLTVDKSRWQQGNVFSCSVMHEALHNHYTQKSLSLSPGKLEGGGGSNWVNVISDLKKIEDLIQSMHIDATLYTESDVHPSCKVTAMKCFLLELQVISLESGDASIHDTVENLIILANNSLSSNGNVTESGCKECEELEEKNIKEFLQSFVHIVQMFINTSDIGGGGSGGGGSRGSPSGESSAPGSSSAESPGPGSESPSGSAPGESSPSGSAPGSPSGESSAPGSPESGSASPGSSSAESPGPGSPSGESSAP
Chain of SB1902-C4 (chain, as listed by the source, chain 2 of 2): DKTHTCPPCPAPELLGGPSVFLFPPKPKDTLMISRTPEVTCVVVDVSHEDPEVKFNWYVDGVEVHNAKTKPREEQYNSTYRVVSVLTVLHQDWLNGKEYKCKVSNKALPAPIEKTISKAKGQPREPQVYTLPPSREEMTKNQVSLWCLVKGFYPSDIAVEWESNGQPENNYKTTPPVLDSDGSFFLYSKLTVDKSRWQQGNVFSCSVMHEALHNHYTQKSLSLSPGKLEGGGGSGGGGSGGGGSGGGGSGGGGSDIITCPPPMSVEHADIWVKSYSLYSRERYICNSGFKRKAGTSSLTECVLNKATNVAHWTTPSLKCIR
Chain of SB1902-C5 (chain, as listed by the source, chain 1 of 2): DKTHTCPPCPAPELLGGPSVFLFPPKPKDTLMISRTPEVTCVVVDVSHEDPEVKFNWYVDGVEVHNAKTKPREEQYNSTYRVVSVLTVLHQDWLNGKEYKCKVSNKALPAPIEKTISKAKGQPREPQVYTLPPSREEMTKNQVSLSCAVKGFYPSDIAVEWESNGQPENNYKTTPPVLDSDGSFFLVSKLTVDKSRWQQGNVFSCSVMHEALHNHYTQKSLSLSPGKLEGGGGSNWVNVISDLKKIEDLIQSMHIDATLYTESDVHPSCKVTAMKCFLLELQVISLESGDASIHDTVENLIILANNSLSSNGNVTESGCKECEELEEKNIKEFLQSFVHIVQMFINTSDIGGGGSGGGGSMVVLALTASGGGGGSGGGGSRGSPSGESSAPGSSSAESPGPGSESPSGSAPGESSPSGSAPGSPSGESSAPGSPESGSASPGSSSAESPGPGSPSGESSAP
Chain of SB1902-C5 (chain, as listed by the source, chain 2 of 2): as the sequence (chain, as listed by the source, chain 2 of 2) above
Chain of SB1902-C2 (chain, as listed by the source, chain 1 of 2): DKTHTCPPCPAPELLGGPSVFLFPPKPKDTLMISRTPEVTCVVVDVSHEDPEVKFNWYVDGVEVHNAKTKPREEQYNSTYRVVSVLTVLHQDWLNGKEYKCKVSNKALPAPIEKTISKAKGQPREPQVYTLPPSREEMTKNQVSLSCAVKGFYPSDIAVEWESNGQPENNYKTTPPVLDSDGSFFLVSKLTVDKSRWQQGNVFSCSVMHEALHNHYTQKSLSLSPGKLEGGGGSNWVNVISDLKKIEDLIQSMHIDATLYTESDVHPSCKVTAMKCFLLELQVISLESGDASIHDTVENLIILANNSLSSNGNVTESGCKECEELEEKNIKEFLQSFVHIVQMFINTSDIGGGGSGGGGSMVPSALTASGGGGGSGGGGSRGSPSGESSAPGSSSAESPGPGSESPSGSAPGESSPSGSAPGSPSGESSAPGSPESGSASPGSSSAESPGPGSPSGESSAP
Chain of SB1902-C2 (chain, as listed by the source, chain 2 of 2): as the sequence (chain, as listed by the source, chain 2 of 2) above

With recombinant human MMP9 the “in vitro protease digestion (data not shown)” value (CM10) was “The other cleavable moieties (such as CM2, CM5-CM10) was also cleavable in vitro by both MMP2 and MMP9 (data not shown)”, the “in vitro protease digestion (data not shown)” value (CM2) was “The other cleavable moieties (such as CM2, CM5-CM10) was also cleavable in vitro by both MMP2 and MMP9 (data not shown)” and the “in vitro protease digestion (data not shown)” value (CM5) was “The other cleavable moieties (such as CM2, CM5-CM10) was also cleavable in vitro by both MMP2 and MMP9 (data not shown)”. The “in vitro protease digestion (data not shown)” value (CM6) was “The other cleavable moieties (such as CM2, CM5-CM10) was also cleavable in vitro by both MMP2 and MMP9 (data not shown)”, the “in vitro protease digestion (data not shown)” value (CM7) was “The other cleavable moieties (such as CM2, CM5-CM10) was also cleavable in vitro by both MMP2 and MMP9 (data not shown)” and the “in vitro protease digestion (data not shown)” value (CM8) was “The other cleavable moieties (such as CM2, CM5-CM10) was also cleavable in vitro by both MMP2 and MMP9 (data not shown)”. The “in vitro protease digestion (data not shown)” value (CM9) was “The other cleavable moieties (such as CM2, CM5-CM10) was also cleavable in vitro by both MMP2 and MMP9 (data not shown)”, the “in vitro protease digestion, polyacrylamide gel” value (SB1902-C2) was “The mutated substrate CM1 was cleavable in vitro by both MMP2 and MMP9 enzymes, with an enzyme dose-dependent manner” and the “in vitro protease digestion, polyacrylamide gel” value (SB1902-C4) was “the non-cleavable G4S linker in SB1902-C4 was resistant to both MMP2 and MMP9 enzyme digestion”. The “in vitro protease digestion, polyacrylamide gel” value (SB1902-C5) was “The mutated substrate CM4 was cleavable in vitro by both MMP2 and MMP9 enzymes, with an enzyme dose-dependent manner”.
